From patent US20200087373A1 (UNIVERSITY OF COPENHAGEN, published 2020)
Ends that are not written are not given here. * marks the point of attachment. C18 diacid = O=C(O)CCCCCCCCCCCCCCCCC(=O)*; Stearoyl = CCCCCCCCCCCCCCCCCC(=O)*; Palmitoyl = CCCCCCCCCCCCCCCC(=O)*; Myristoyl = CCCCCCCCCCCCCC(=O)*; Lauroyl = CCCCCCCCCCCC(=O)*

T1: human GIP receptor (human, UniProt P48546 22-466)
T1 construct: whole, on cells; also called hGIPR
T1 sequence (looked up): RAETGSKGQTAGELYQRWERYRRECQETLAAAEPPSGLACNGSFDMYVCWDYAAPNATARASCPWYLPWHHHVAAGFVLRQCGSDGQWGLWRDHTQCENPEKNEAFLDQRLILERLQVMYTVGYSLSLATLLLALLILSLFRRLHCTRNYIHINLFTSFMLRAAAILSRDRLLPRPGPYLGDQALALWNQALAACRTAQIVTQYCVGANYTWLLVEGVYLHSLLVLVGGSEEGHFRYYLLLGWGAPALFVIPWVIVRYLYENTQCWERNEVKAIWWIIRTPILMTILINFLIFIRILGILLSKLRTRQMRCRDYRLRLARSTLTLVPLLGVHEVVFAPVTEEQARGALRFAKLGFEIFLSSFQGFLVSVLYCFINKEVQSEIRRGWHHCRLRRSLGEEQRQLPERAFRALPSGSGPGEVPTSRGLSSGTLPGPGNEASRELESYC

B1: AT141 [hGIP(5-30)NH2-C18diacid/16] (peptide)
peptide: TFISDYSIAMDK(C18 diacid)IHQQDFVNWLLAQK-NH2
modifications: N-terminus assumed
SMILES: CC[C@H](C)[C@H](NC(=O)[C@H](CO)NC(=O)[C@H](Cc1ccc(O)cc1)NC(=O)[C@H](CC(=O)O)NC(=O)[C@H](CO)NC(=O)[C@@H](NC(=O)[C@H](Cc1ccccc1)NC(=O)[C@@H](N)[C@@H](C)O)[C@@H](C)CC)C(=O)N[C@@H](C)C(=O)N[C@@H](CCSC)C(=O)N[C@@H](CC(=O)O)C(=O)N[C@@H](CCCCNC(=O)CCCCCCCCCCCCCCCCC(=O)O)C(=O)N[C@H](C(=O)N[C@@H](Cc1c[nH]cn1)C(=O)N[C@@H](CCC(N)=O)C(=O)N[C@@H](CCC(N)=O)C(=O)N[C@@H](CC(=O)O)C(=O)N[C@@H](Cc1ccccc1)C(=O)N[C@H](C(=O)N[C@@H](CC(N)=O)C(=O)N[C@@H](Cc1c[nH]c2ccccc12)C(=O)N[C@@H](CC(C)C)C(=O)N[C@@H](CC(C)C)C(=O)N[C@@H](C)C(=O)N[C@@H](CCC(N)=O)C(=O)N[C@@H](CCCCN)C(N)=O)C(C)C)[C@@H](C)CC
B2: AT119 [hGIP(5-30)NH2-C12/16] (peptide)
peptide: TFISDYSIAMDK(Lauroyl)IHQQDFVNWLLAQK-NH2
modifications: N-terminus assumed
SMILES: CCCCCCCCCCCC(=O)NCCCC[C@H](NC(=O)[C@H](CC(=O)O)NC(=O)[C@H](CCSC)NC(=O)[C@H](C)NC(=O)[C@@H](NC(=O)[C@H](CO)NC(=O)[C@H](Cc1ccc(O)cc1)NC(=O)[C@H](CC(=O)O)NC(=O)[C@H](CO)NC(=O)[C@@H](NC(=O)[C@H](Cc1ccccc1)NC(=O)[C@@H](N)[C@@H](C)O)[C@@H](C)CC)[C@@H](C)CC)C(=O)N[C@H](C(=O)N[C@@H](Cc1c[nH]cn1)C(=O)N[C@@H](CCC(N)=O)C(=O)N[C@@H](CCC(N)=O)C(=O)N[C@@H](CC(=O)O)C(=O)N[C@@H](Cc1ccccc1)C(=O)N[C@H](C(=O)N[C@@H](CC(N)=O)C(=O)N[C@@H](Cc1c[nH]c2ccccc12)C(=O)N[C@@H](CC(C)C)C(=O)N[C@@H](CC(C)C)C(=O)N[C@@H](C)C(=O)N[C@@H](CCC(N)=O)C(=O)N[C@@H](CCCCN)C(N)=O)C(C)C)[C@@H](C)CC
B3: AT116 [hGIP(3-30)NH2-C12/18] (peptide)
peptide: EGTFISDYSIAMDKIK(Lauroyl)QQDFVNWLLAQK-NH2
modifications: N-terminus assumed
SMILES: CCCCCCCCCCCC(=O)NCCCC[C@H](NC(=O)[C@@H](NC(=O)[C@H](CCCCN)NC(=O)[C@H](CC(=O)O)NC(=O)[C@H](CCSC)NC(=O)[C@H](C)NC(=O)[C@@H](NC(=O)[C@H](CO)NC(=O)[C@H](Cc1ccc(O)cc1)NC(=O)[C@H](CC(=O)O)NC(=O)[C@H](CO)NC(=O)[C@@H](NC(=O)[C@H](Cc1ccccc1)NC(=O)[C@@H](NC(=O)CNC(=O)[C@@H](N)CCC(=O)O)[C@@H](C)O)[C@@H](C)CC)[C@@H](C)CC)[C@@H](C)CC)C(=O)N[C@@H](CCC(N)=O)C(=O)N[C@@H](CCC(N)=O)C(=O)N[C@@H](CC(=O)O)C(=O)N[C@@H](Cc1ccccc1)C(=O)N[C@H](C(=O)N[C@@H](CC(N)=O)C(=O)N[C@@H](Cc1c[nH]c2ccccc12)C(=O)N[C@@H](CC(C)C)C(=O)N[C@@H](CC(C)C)C(=O)N[C@@H](C)C(=O)N[C@@H](CCC(N)=O)C(=O)N[C@@H](CCCCN)C(N)=O)C(C)C
B4: AT117 [hGIP(3-30)NH2[H18K]-C16/18] (peptide)
peptide: EGTFISDYSIAMDKIK(Palmitoyl)QQDFVNWLLAQK-NH2
modifications: N-terminus assumed
SMILES: CCCCCCCCCCCCCCCC(=O)NCCCC[C@H](NC(=O)[C@@H](NC(=O)[C@H](CCCCN)NC(=O)[C@H](CC(=O)O)NC(=O)[C@H](CCSC)NC(=O)[C@H](C)NC(=O)[C@@H](NC(=O)[C@H](CO)NC(=O)[C@H](Cc1ccc(O)cc1)NC(=O)[C@H](CC(=O)O)NC(=O)[C@H](CO)NC(=O)[C@@H](NC(=O)[C@H](Cc1ccccc1)NC(=O)[C@@H](NC(=O)CNC(=O)[C@@H](N)CCC(=O)O)[C@@H](C)O)[C@@H](C)CC)[C@@H](C)CC)[C@@H](C)CC)C(=O)N[C@@H](CCC(N)=O)C(=O)N[C@@H](CCC(N)=O)C(=O)N[C@@H](CC(=O)O)C(=O)N[C@@H](Cc1ccccc1)C(=O)N[C@H](C(=O)N[C@@H](CC(N)=O)C(=O)N[C@@H](Cc1c[nH]c2ccccc12)C(=O)N[C@@H](CC(C)C)C(=O)N[C@@H](CC(C)C)C(=O)N[C@@H](C)C(=O)N[C@@H](CCC(N)=O)C(=O)N[C@@H](CCCCN)C(N)=O)C(C)C
B5: AT121 [hGIP(5-30)NH2-C14/5] (peptide)
peptide: Myristoyl-TFISDYSIAMDKIHQQDFVNWLLAQK-NH2
SMILES: CCCCCCCCCCCCCC(=O)N[C@H](C(=O)N[C@@H](Cc1ccccc1)C(=O)N[C@H](C(=O)N[C@@H](CO)C(=O)N[C@@H](CC(=O)O)C(=O)N[C@@H](Cc1ccc(O)cc1)C(=O)N[C@@H](CO)C(=O)N[C@H](C(=O)N[C@@H](C)C(=O)N[C@@H](CCSC)C(=O)N[C@@H](CC(=O)O)C(=O)N[C@@H](CCCCN)C(=O)N[C@H](C(=O)N[C@@H](Cc1c[nH]cn1)C(=O)N[C@@H](CCC(N)=O)C(=O)N[C@@H](CCC(N)=O)C(=O)N[C@@H](CC(=O)O)C(=O)N[C@@H](Cc1ccccc1)C(=O)N[C@H](C(=O)N[C@@H](CC(N)=O)C(=O)N[C@@H](Cc1c[nH]c2ccccc12)C(=O)N[C@@H](CC(C)C)C(=O)N[C@@H](CC(C)C)C(=O)N[C@@H](C)C(=O)N[C@@H](CCC(N)=O)C(=O)N[C@@H](CCCCN)C(N)=O)C(C)C)[C@@H](C)CC)[C@@H](C)CC)[C@@H](C)CC)[C@@H](C)O

What was measured:
human GIP receptor [1] = molecular target: T1, human GIP receptor; experiment: IC50 with 2% HSA over IC50 with 0.1% casein, 125I-hGIP competition, COS-7/hGIPR
Description: (§1) After incubation, the cells were washed twice in ice-cold binding buffer (+/−2% HSA) and lysed using 200 mM NaOH with 1% SDS for 30 min. Nonspecific binding was determined as the binding of radioactive ligand to untransfected cells.

human GIP receptor [2] = molecular target: T1, human GIP receptor; experiment: 125I-hGIP competition binding, COS-7/hGIPR, 0.1% casein;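 further: nonspecific binding defined as radioligand binding measured on untransfected cells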
Description: as §1

human GIP receptor [3] = molecular target: T1, human GIP receptor; experiment: 125I-hGIP competition binding, COS-7 cells expressing hGIPR;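 further: nonspecific binding taken as radioligand bound by untransfected cells, binding buffer with or without 2% HSA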
Description: as §1

human GIP receptor [4] = molecular target: T1, human GIP receptor; experiment: 125I-hGIP competition binding, COS-7/hGIPR, 2% HSA;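 further: nonspecific binding defined as radioligand binding to untransfected cells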
Description: as §1

| Binder | Fold change HSA (2%)/Casein (0.1%) (human GIP receptor [1]) | IC50 (human GIP receptor [2]) | logIC50 (human GIP receptor [2]) | IC50 (human GIP receptor [3]) | log IC50 (human GIP receptor [3]) | IC50 (human GIP receptor [4]) | logIC50 (human GIP receptor [4]) |
| --- | --- | --- | --- | --- | --- | --- | --- |
| B1 | 6.5 fold | 1.9 µM | -5.7 log M | 1.9 µM | -5.7 log M | 12.4 µM | -4.9 log M |
| EGTFISDYSIAMDK(Stearoyl)IHQQDFVNWLLAQK-NH2 [AT114 [hGIP(3-30)NH2-C18/16]] | 11.2 fold | 0.489 µM | -6.3 log M | 0.622 µM | -6.2 log M | 5.46 µM | -5.3 log M |
| B2 | 7.2 fold | 0.369 µM | -6.4 log M | 0.194 µM | -6.7 log M | 2.66 µM | -5.6 log M |
| B3 | 5.2 fold | 0.062 µM | -7.2 log M | 0.0712 µM | -7.1 log M | 0.321 µM | -6.5 log M |
| B4 | 15.7 fold | 0.11 µM | -7 log M | 0.292 µM | -6.5 log M | 1.73 µM | -5.8 log M |
| EGTFISDYSIAMDK(Myristoyl)IHQQDFVNWLLAQK-NH2 [AT111 [hGIP(3-30)NH2-C14/16]] | 5.1 fold | 0.407 µM | -6.4 log M | 0.261 µM | -6.6 log M | 2.09 µM | -5.7 log M |
| B5 | 5.7 fold | 0.17 µM | -6.8 log M | 0.173 µM | -6.8 log M | 0.966 µM | -6 log M |
